From patent US20040259770A1, “Method for determining leukocyte activation” (Rush University Medical Center, priority 2003, published 2004)

Tests used:
Assay type in all cases: cell-based, human
[1] = system: eosinophils; assay: Eosinophil superoxide production (cytochrome c reduction) in protein-coated tissue culture wells
Protocol: Neutrophils were isolated from venous blood of healthy adult volunteers by density gradient centrifugation through lymphocyte separation medium (BioWhittaker; Walkersville, Md.) as described previously (Haskell M. D., et al., Blood 86:4627-4637 (1995)) with one modification. Isotonicity was restored following the brief hypotonic lysis steps by the addition of 2× concentrated Hank's Balanced Salt Solution (HBSS) (Gibco; Grand Island, N.Y.) (without Ca^2+ and Mg^2+) containing 5 mM HEPES, pH 7.4. The cells were suspended in HEPES (10 mM)-buffered HBSS (with Ca^2+ and Mg^2+), pH 7.4, containing 1 milligram per milliliter of human serum albumin (HSA) (Sigma Chemical Co.) (HEPES-HBSS-HSA buffer). Neutrophil purity was routinely greater than 95 percent, with eosinophils representing the remainder of the cells. Eosinophils were isolated from the neutrophil preparations by negative selection (Hansel T. T., et al., J. Immunol. Meth. 145:105-10 (1991)) using anti-CD16 immunomagnetic beads as described by the manufacturer (Miltenyi Biotec, Inc., Auburn, Calif.). The eosinophils were suspended in HEPES-HBSS-HSA buffer. Eosinophil purity was routinely greater than 95 percent as determined by counting Wright-stained cytospin preparations. In some assays, an aliquot of the neutrophil preparation was held on ice for later use.
Superoxide production was measured essentially as described elsewhere (Motegi, Y., and H. Kita, J. Immunol. 161:4340 (1998)). Briefly, wells in a 96-well (flat bottom) tissue culture plate (Corning, Inc.; Corning, N.Y.) were coated with human milk lactoferrin (Sigma Chemical Co.) or human secretory IgA (ICN Biomedical; Aurora, Ohio) by incubation with 50 microliters of the indicated concentrations of the proteins in phosphate buffered saline (PBS) overnight at 4° C. Non-specific protein binding sites were blocked by subsequent incubation with 100 microliters of 25 milligrams per milliliter of HSA in PBS for 2 hours at 37° C., and the tissue culture wells were washed twice with PBS before use. Aliquots (5×10^4 cells) of eosinophils or neutrophils were added to the wells and were incubated in HEPES-HBSS—HSA buffer containing 50 micromolar cytochrome c (Sigma Chemical Co.) for 120 minutes at 37° C. in a Ceres UV900HDi microplate reader (Bio-Tek Instruments, Inc., Winooski, Vt.). Total incubation volume was 0.2 milliliters. Absorbance at 550 nanometers was recorded at 15-minute intervals, and superoxide production was calculated as described previously (Motegi, Y., and H. Kita, J. Immunol. 161:4340 (1998)). Results are expressed as nanomoles superoxide per 10^5 cells after subtraction of spontaneous production, which was measured in tissue culture wells coated only with HSA. GM-CSF (R & D Systems; Minneapolis, Minn.), porcine heparin (Sigma Chemical Co.), or chondroitin sulfate C (Sigma Chemical Co.) was added to the incubation mixtures in some assays as indicated.

[2] = system: neutrophils; assay: Neutrophil superoxide production (cytochrome c reduction) in protein-coated tissue culture wells
Protocol: Neutrophils were isolated from venous blood of healthy adult volunteers by density gradient centrifugation through lymphocyte separation medium (BioWhittaker; Walkersville, Md.) as described previously (Haskell M. D., et al., Blood 86:4627-4637 (1995)) with one modification. Isotonicity was restored following the brief hypotonic lysis steps by the addition of 2× concentrated Hank's Balanced Salt Solution (HBSS) (Gibco; Grand Island, N.Y.) (without Ca^2+ and Mg^2+) containing 5 mM HEPES, pH 7.4. The cells were suspended in HEPES (10 mM)-buffered HBSS (with Ca^2+ and Mg^2+), pH 7.4, containing 1 milligram per milliliter of human serum albumin (HSA) (Sigma Chemical Co.) (HEPES-HBSS-HSA buffer). […] Eosinophil purity was routinely greater than 95 percent as determined by counting Wright-stained cytospin preparations. […]
Superoxide production was measured essentially as described elsewhere (Motegi, Y., and H. Kita, J. Immunol. 161:4340 (1998)). […] Aliquots (5×10^4 cells) of eosinophils or neutrophils were added to the wells and were incubated in HEPES-HBSS—HSA buffer containing 50 micromolar cytochrome c (Sigma Chemical Co.) for 120 minutes at 37° C. in a Ceres UV900HDi microplate reader (Bio-Tek Instruments, Inc., Winooski, Vt.). […] Results are expressed as nanomoles superoxide per 10^5 cells after subtraction of spontaneous production, which was measured in tissue culture wells coated only with HSA. […]

[3] = system: eosinophils; assay: Eosinophil degranulation: EDN release by ELISA; details: 3 to 100 micrograms per milliliter immobilized, 4 hours at 37° C, maximum at 100 micrograms per milliliter
Protocol: Eosinophils (2×10^5) were incubated in the presence and absence of 100 picograms per milliliter of GM-CSF in RPMI 1640 containing 1 milligram per milliliter of HSA for 4 hours at 37° C. in 5 percent CO2 in tissue culture wells precoated with lactoferrin or secretory IgA as above. Total incubation volume was 0.2 milliliters. Reactions were stopped by centrifugation at 300 g for 5 minutes at 4° C., and supernatants were stored at −20° C. until measurement of eosinophil-derived neurotoxin (EDN) content by specific ELISA (MBL International, Watertown, Mass.). Spontaneous release of EDN was determined with cells incubated in HSA-coated wells.

[4] = system: eosinophils; assay: Eosinophil leukotriene C4 production by ELISA; details: 1 hour
Protocol: Eosinophils (2×10^5) were incubated in the presence and absence of 100 pg/ml GM-CSF in RPMI 1640 containing 10 mM HEPES for 1 hr at 37° C. in tissue culture wells precoated with lactoferrin or secretory IgA as above with one modification. The tissue culture wells were not treated with HSA and HSA was not added to the incubation buffer to minimize loss of leukotriene C4. Total incubation volume was 0.2 ml. Reactions were stopped by centrifugation at 300 g for 5 min at 4° C., and supernatants were stored at −20° C. until measurement of leukotriene C4 content by a leukotriene C4/D4/E4 ELISA (Amersham Pharmacia Biotech; Piscataway, N.J.). Spontaneous leukotriene C4 production was determined with eosinophils incubated in untreated tissue culture wells.

B1: immobilized lactoferrin: human milk lactoferrin (Sigma) coated on tissue culture wells overnight at 4° C (protein, UniProt P02788 20-710, looked up)
Lactotransferrin: GRRRSVQWCAVSQPEATKCFQWQRNMRKVRGPPVSCIKRDSPIQCIQAIAENRADAVTLDGGFIYEAGLAPYKLRPVAAEVYGTERQPRTHYYAVAVVKKGGSFQLNELQGLKSCHTGLRRTAGWNVPIGTLRPFLNWTGPPEPIEAAVARFFSASCVPGADKGQFPNLCRLCAGTGENKCAFSSQEPYFSYSGAFKCLRDGAGDVAFIRESTVFEDLSDEAERDEYELLCPDNTRKPVDKFKDCHLARVPSHAVVARSVNGKEDAIWNLLRQAQEKFGKDKSPKFQLFGSPSGQKDLLFKDSAIGFSRVPPRIDSGLYLGSGYFTAIQNLRKSEEEVAARRARVVWCAVGEQELRKCNQWSGLSEGSVTCSSASTTEDCIALVLKGEADAMSLDGGYVYTAGKCGLVPVLAENYKSQQSSDPDPNCVDRPVEGYLAVAVVRRSDTSLTWNSVKGKKSCHTAVDRTAGWNIPMGLLFNQTGSCKFDEYFSQSCAPGSDPRSNLCALCIGDEQGENKCVPNSNERYYGYTGAFRCLAENAGDVAFVKDVTVLQNTDGNNNEAWAKDLKLADFALLCLDGKRKPVTEARSCHLAMAPNHAVVSRMDKVERLKQVLLHQQAKFGRNGSDCPDKFCLFQSETKNLLFNDNTECLARLHGKTTYEKYLGPQYVAGITNLKKCSTSPLLEACEFLRK
modifications: immobilized
notes: human milk lactoferrin (Sigma) coated on tissue culture wells overnight at 4° C
stimulation of eosinophil superoxide production (in words) ([1]; 1 to 100 micrograms per milliliter of the protein, 2 hours at 37° C): stimulated marked superoxide production
concentration giving maximum (peak) superoxide production ([1]; 2-hour time point, absence of GM-CSF): 30 micrograms per milliliter
superoxide production with immobilized lactoferrin and immobilized secretory IgA in combination ([1]; 3 or 10 micrograms per milliliter lactoferrin plus 1 or 3 micrograms per milliliter secretory IgA, n=4): additive levels of superoxide production
maximum response of superoxide production ([1]; 30 micrograms per milliliter immobilized, 2-hour time point, five assays, corrected for spontaneous production): approximately 5 nanomoles superoxide per 10^5 eosinophils
eosinophil superoxide production ([1]; 30 micrograms per milliliter immobilized, Example 3 assays (same donors as neutrophils), spontaneous value subtracted): 5.5±1.4 nanomoles per 10^5 eosinophils
stimulation of eosinophil superoxide production (in words) ([1]; immobilized at concentrations less than 3 micrograms per milliliter): did not appear to stimulate superoxide production
potency relative to immobilized secretory IgA ([1]; superoxide production, same assays): approximately one-third
stimulation of neutrophil superoxide production (in words) ([2]; 1 to 100 micrograms per milliliter immobilized, up to 2 hours): did not produce significant superoxide production
neutrophil superoxide production as percent of eosinophil superoxide production stimulated by 30 micrograms per milliliter immobilized lactoferrin ([2]; 100 microgram per milliliter immobilized lactoferrin): 25%
net release of EDN [3]: ≤ 1000 nanograms of EDN per 10^6 eosinophils
leukotriene C4 production (in words) ([4]; 3 to 100 micrograms per milliliter immobilized, no GM-CSF): stimulated only low levels of leukotriene C4
leukotriene C4 production ([4]; 10 micrograms per milliliter immobilized lactoferrin alone): 115 picograms leukotriene C4 per 10^6 eosinophils
leukotriene C4 production ([4]; 10 micrograms per milliliter immobilized lactoferrin together with 100 picograms per milliliter GM-CSF): 955 picograms leukotriene C4 per 10^6 eosinophils
